Entries after “also recorded” stand apart in the source; their conditions may differ.
Key:
PC12 cells [1] = assay: Neurite outgrowth assay in PC12 cells; type: cell-based, rat; conditions: neurite outgrowth assay, concentration not given
Source text: (§1) PC12 cells were obtained from ATCC (Manassas, Va. (Accession No. CRL-1721)) and cultured on collagen-coated dishes in RPMI 1640 supplemented with 10% horse serum and 5% fetal bovine serum (Greene, L. A. and Tishler, A. S., Proc. Natl. Acad. Sci. USA, 73: 2424-2428 (1976)). For differentiation and survival experiments, cells were washed three times in serum-free RPMI/0.2% BSA, plated in the same medium in collagen-coated plastic dishes at 2×10^5/ml, without and with growth factors, TS, recombinant proteins, synthetic peptides, for the time and concentrations indicated in the Figures.
(§2) 96-well microtiter plates were coated overnight at 4° C. with the TS or peptides or fragments thereof, or with control proteins laminin (Ln) or bovine serum albumin (BSA) at 500 μg/ml. After removing the compounds, the plates were further incubated with 1% BSA for 1 hour at room temperature and immediately used as substratum for PC12 or N18 (Prasad, K. N., Biol Rev Camb Philos Soc, 66:431-451 (1991)) cells in serum-free RPMI/0.2% BSA. Neurite outgrowth was measured using a phase-contrast microscope 17 hours later.

N18 cells = assay: Neurite outgrowth assay in N18 cells; type: cell-based; conditions: immobilized proteins coated at 500 μg/ml, 17 hours (FIG. 3A)
Description: FIG. 3A is a graph showing that neurite outgrowth in N18 cells is induced by immobilized laminin (Ln), immobilized TS and immobilized fragments of TS. Proteins were immobilized by incubating plates which contained wells filled with solutions of the proteins (protein concentration was 500 μg/ml) at 4° C. overnight. The protein solutions were removed and the plates were further incubated with 1% BSA at room temperature for one hour. N18 cells were cultured in the coated wells in serum-free RPMI-1640/0.2% BSA for 17 hours, and neurite outgrowth was measured by phase-contrast microscopy. […] Ln, laminin; TS, purified T. cruzi trans-sialidase; 7F, recombinant TS from clone 7F; 19Y, recombinant TS from clone 19Y; TS-F, recombinant fragment consisting of amino acid residues 33-666 of TS (SEQ ID NO:2); TS-CC-47, recombinant fragment consisting of amino acid residues 79-478 of TS (SEQ ID NO:2); TS-Cat-47, recombinant fragment consisting of amino acid residues 79-415 of TS (SEQ ID NO:2); BSA, bovine serum albumin.
as §2

PC12 cells [2] = assay: Trophic factor withdrawal-induced apoptosis of PC12 cells (DAPI/TUNEL); type: cell-based, rat; conditions: serum-free RPMI-1640/0.2% BSA, 17 hours, DAPI or TUNEL
Source text: as §1
Cell staining with 4,6-diamino-2-phenylindole (DAPI). Cells were fixed with 4% formaldehyde in PBS for 5 minutes, washed with PBS, stained with 10 μg/ml DAPI (Sigma) for 2 minutes, washed with PBS, and visualized under UV light using a fluorescent microscope. About 300-400 cells were examined under the microscope to determine the percentage of apoptotic cells.
Cell DNA nick end labeling (TUNEL) (Gavrieli, Y., et al., J. Cell. Biol. 119: 493-501 (1992)) assay was performed using a kit purchased from Boehringer Mannheim as described by the manufacturer.
Protection against apoptosis of PC12 cells in serum-free medium containing a test agent (agent N)(e.g., protection induced by TS, TS fragments, NGF or other growth factors), was calculated by the formula: 100%-[(apoptosis(%) of cells kept in RPMI containing test agent N÷apoptosis (%) of cells kept in RPMI)×100%]. Testing the effect of wortmannin (Sigma) and LY294002 (Sigma) in inhibiting the neuroprotection of TS was performed following the protocol described by others (Yao and Cooper, Science, 267:2003-2006 (1995); D'Mello et al., J. Neurosci 17:1548-1560 (1997)). In brief, PC12 cells were switched from growth medium to RPMI without and with TS or various other growth factors. After 24 hr, wortmannin and LY294002 were added to the cultures. After another 24 hrs, cells were examined for apoptosis by the DAPI assay, as above.

B1: cruzipain: T. cruzi protease (protein, UniProt P25779 123-467, looked up)
Cruzipain: APAAVDWRARGAVTAVKDQGQCGSCWAFSAIGNVECQWFLAGHPLTNLSEQMLVSCDKTDSGCSGGLMNNAFEWIVQENNGAVYTEDSYPYASGEGISPPCTTSGHTVGATITGHVELPQDEAQIAAWLAVNGPVAVAVDASSWMTYTGGVMTSCVSEQLDHGVLLVGYNDSAAVPYWIIKNSWTTQWGEEGYIRIAKGSNQCLVKEEASSAVVGGPGPTPEPTTTTTTSAPGPSPSYFVQMSCTDAACIVGCENVTLPTGQCLLTTSGVSAIVTCGAETLTEEVFLTSTHCSGPSVRSSVPLNKCNRLLRGSVEFFCGSSSSGRLADVDRQRRHQPYHSRHRRL
PC12 cells [1]
  neurite outgrowth in PC12 cells: did not induce neurite extension

B2: TS-CC-47: recombinant fragment consisting of amino acid residues 79-478 of TS (SEQ ID NO:2) (protein, listed as Trypanosoma cruzi)
chain: MVAIADARYDTSNDNSLIDTVAKYSVDDGETWETQIAIKNSRVSSVSRVVDPTVIVKGNKLYVLVGSYYSSRSYWSSHGDARDWDILLAVGEVTKSTAGGKITASIKWGSPVSLKKFFPAEMEGMHTNQFLGGAGVAIVASNGNLVYPVQVTNKKKQVFSKIFYSEDDGKTWKFGKGRSDFGCSEPVALEWEGKLIINTRVDWKRRLVYESSDMEKPWVEAVGTVSRVWGPSPKSNQPGSQSSFTAVTIEGMRVMLFTHPLNFKGRWLRDRLNLWLTDNQRIYNVGQVSIGDENSAYSSVLYKDDKLYCLHEINTDEVYSLVFARLVGELRIIKSVLRSWKNWDSHLSSICTPADPAASSSESGCGPAVTTVGLVGFLSGNASQNVWEDAYRCVNASTAN
N18 cells
  neurite outgrowth in N18 cells: did not substantially reduce neurite outgrowth; also recorded: active
PC12 cells [2]
  protection of PC12 cells from apoptosis induced by trophic factor withdrawal: active

B3: TS-Cat-47: recombinant fragment consisting of amino acid residues 79-415 of TS (SEQ ID NO:2) (protein, listed as Trypanosoma cruzi)
chain: MVAIADARYDTSNDNSLIDTVAKYSVDDGETWETQIAIKNSRVSSVSRVVDPTVIVKGNKLYVLVGSYYSSRSYWSSHGDARDWDILLAVGEVTKSTAGGKITASIKWGSPVSLKKFFPAEMEGMHTNQFLGGAGVAIVASNGNLVYPVQVTNKKKQVFSKIFYSEDDGKTWKFGKGRSDFGCSEPVALEWEGKLIINTRVDWKRRLVYESSDMEKPWVEAVGTVSRVWGPSPKSNQPGSQSSFTAVTIEGMRVMLFTHPLNFKGRWLRDRLNLWLTDNQRIYNVGQVSIGDENSAYSSVLYKDDKLYCLHEINTDEVYSLVFARLVGELRIIKSVL
PC12 cells [1]
  neurite outgrowth in PC12 cells: did not promote neurite outgrowth
N18 cells
  neurite outgrowth in N18 cells: inactive in stimulating neurite outgrowth
PC12 cells [2]
  protection of PC12 cells from apoptosis induced by trophic factor withdrawal: promoted the survival of the PC12 cells

Source: patent publication US8114412B2, “T. cruzi-derived neurotrophic agents and methods of use therefor” (priority 1999, dated 2012)
